Columns and labels:
Experiment in all cases: other fluorescence titration
H3K4ac peptide = biological target: H3K4ac peptide
H3K4me3 peptide = biological target: H3K4me3 peptide
[1] = biological target: unmodified H3 (aa 1–12) peptide (UniProt P68431)

- Kd (H3K4ac peptide): 11 µM
- Kd (H3K4me3 peptide): 4.8 µM
- Kd [1]: 4.3 µM
Substance: ZZEF1ZZ2 with H1877 replaced by tryptophan (for tryptophan fluorescence) (domain or fragment)

Reference: publication PMC8133392
